Substitutions are numbered along the chain they refer to.
B1: sdAb1, anti-PfCSP camelid single-domain antibody (VHH)
VHH: QVQLQESGGGLVQAGGSLRLSCAASGRTFSSYSMGWFRLVPGKEREFVARISSSGGNTYYADSVRGRFTISRDNAKNTVYLQMNSLKPEDTAVYYCAADLLQFGRSSRAADYDYWGQGTQVTVSS
notes: from the library of the alpaca Attitude (immunized with PfCSPFL); Expressed from pMECS-GG; Same VHH family as sdAb9; source: E. coli WK6, periplasmic extract, purified (Ni-NTA, SEC); crude bacterial extract for the screening ELISA
B2: sdAb9, anti-PfCSP camelid single-domain antibody (VHH)
VHH: B1 VHH with L39Q, S52T, Y59D, V64A, R65K, N84S, S85T, L101W, F103Y, S106N
notes: from the library of the alpaca Attitude (immunized with PfCSPFL); Expressed from pMECS-GG; Same VHH family as sdAb1; source: E. coli WK6, periplasmic extract, purified (Ni-NTA, SEC); crude bacterial extract for the screening ELISA
B3: sdAb2 (VHH)
VHH: QVQLQESGGGLVQFGGSLRLSCAASGFTFSSANMSWVRQAPGKGLEWVSTISPGGGTTSYAGSVKGRFTISRDNAKNTLYLQMNALKPEDTAVYYCATGGPSSQESVYRGQGTQVTVSS
B4: sdAb18 (VHH)
VHH: QVQLQESGGGLVQPGGSLNLSCTAGVSLDYYAIGWFRQAPGKEREFVARISSSGGNTYYADSVRGRFTISRDNAKNTVYLQMNSLKPEDTAVYYCAADLLQFGRSSRAADYDYWGQGTQVTVSS
B5: sdAb5 (VHH)
VHH: QVQLQESGGGLVQAGGSLRLSCAASGRTFGSYVMGWFRQAPGKEREFVAAISRSGGTTYYADSVKGRFAISRDNAKNTVFLQMNSLKPEDTAVYYCAATTTISMLVVLTTTPKYDYWGQGTQVTVSS
B6: sdAb8 (VHH)
VHH: QVQLQESGGGLVQAGGSLRLSCAASGRTVSSYTMGWFRQAPGKERSFVAASLRSGGSTYYSDSVKGRFTISRDNAKNTVYLQMNSLRPEDTAVYYCAADEQLAYNINYNYRNYDYWGQGTQVTVSS
B7: sdAb3 (VHH)
VHH: QVQLQESGGGLVQAGGSLRLSCAASGRTFTEYSMGWFRQAPGKEREFVARISWSGGSTYYADSVKGRFTISRDNAENTVYLQMTSLKPEDTAVYYCAADQLQFGRNSRAADYDDWGQGTQVTVSS
B8: sdAb7 (VHH)
VHH: B1 VHH with L11V, A14T, G26V, S31N, S33A, M34L, L39Q, V40A
B9: sdAb15 (VHH)
VHH: QVQLQESGGGLVQAGGSLRLSCVATGRPFDDYTVAWFRQAPGKERDFVAAISRSGVSTYYQDDVKGRFTISRDNARNTAYLSMNSLKPEDTAVYYCAARSTIRLLTDPSYDYWGQGTQVTVSS
B10: sdAb4 (VHH)
VHH: QVQLQESGGGLVQVGGSLRLSCAASGRTFSSYTMAWFRQAPGKEREFVAAISRSGSNTYYADSVKGRFTISRDNAKNTVYLQMSSLYPEDTAVYTCAARDAILLLTTTHYDYWGQGTQVTVSS
B11: sdAb10 (VHH)
VHH: QVQLQESGGGLVQPGGSLRLSCAASGRTFSSYTMGWFRQAPGKERELVAAISRSGLNTDYADSVKGRFTISRDNAKNTVYLQMNTLKPEDTAVYYCAARSTIRLLTDPSYDYWGQGTQVTVSS
B12: sdAb6 (VHH)
VHH: QVQLQESGGGLVQAGGSLRVSCVGSGRAFSRYSMGWFRQFPGKEREFVACISSSGGAIDYADSVKGRFTISRDNAKNAVYLQMNSLKPDDTAVYYCAADQFRISTVPMGVIDYWGQGTQVTVSS

Each binder was assayed against T1, PfCSPC, C-terminal αTSR domain of P. falciparum NF54 circumsporozoite protein (E310-S384) (P. falciparum NF54, UniProt P19597) (assay: crystal structure; sdAb:PfCSPC complex prepared at 1.2:1, purified by SEC in 20 mM Tris-HCl, 150 mM NaCl, pH 7.5; sitting drop at 20°C; tags retained; data to ~2.1 Å). Conditions: both partners purified.
T1 construct: C-terminal domain (αTSR) of circumsporozoite protein of P. falciparum NF54, UniProt P19597, residues E310-S384; source: E. coli SHuffle T7 Express, purified (IMAC, SEC); not shown: TEV cleavage site (…), C-terminal, kept; His6, C-terminal, kept
T1 sequence (P19597 310-384): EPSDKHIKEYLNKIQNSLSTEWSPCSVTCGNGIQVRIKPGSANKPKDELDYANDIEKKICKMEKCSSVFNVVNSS

Row | Binder | binding result
1 | B1 | binds
2 | B2 | binds

These binders were tested against T2, full-length CSP from P. falciparum 3D7 on the surface of transgenic P. berghei ANKA sporozoites (PfCSP-PbSPZs) (P. falciparum 3D7, UniProt Q7K740) (assay: flow cytometry on cells; salivary gland PfCSP-PbSPZs (15- and 22-day-old), formaldehyde-fixed; sdAb incubated at ambient temperature; detected with anti-HA Alexa Fluor 647; MFI). Conditions: one partner purified.
T2 construct: Full-length circumsporozoite protein of P. falciparum 3D7, expressed on transgenic P. berghei ANKA sporozoites; The same protein on midgut (MG) and salivary gland (SG) sporozoites; the assays tell them apart; also called PfCSP on MG SPZs; PfCSP on SG SPZs; source: transgenic P. berghei ANKA sporozoites isolated from midguts or salivary glands of Anopheles stephensi
T2 sequence (Q7K740 19-374): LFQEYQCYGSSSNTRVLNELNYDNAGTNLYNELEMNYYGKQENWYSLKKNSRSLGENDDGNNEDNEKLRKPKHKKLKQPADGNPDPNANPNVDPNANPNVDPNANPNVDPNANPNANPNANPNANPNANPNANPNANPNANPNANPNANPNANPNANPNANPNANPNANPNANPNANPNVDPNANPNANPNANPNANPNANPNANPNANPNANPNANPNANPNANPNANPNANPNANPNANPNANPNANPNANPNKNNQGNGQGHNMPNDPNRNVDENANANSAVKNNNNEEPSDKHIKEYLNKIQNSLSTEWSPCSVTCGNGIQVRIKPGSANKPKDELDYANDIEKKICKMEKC

Row | Binder | binding result
3 | B1 | binds
4 | B2 | binds

Each binder was assayed against PbCSPFL, recombinant full-length P. berghei ANKA circumsporozoite protein devoid of signal peptide and GPI … (Plasmodium berghei ANKA, UniProt P23093) (assay: ELISA; antigen coated at 1 µg/mL on Maxisorb plates, blocked with 5% milk in PBS; purified sdAb at 1 µg/mL, 1 h at room temperature, triplicates; detected with anti-HA mAb and anti-mouse-HRP). Conditions: both partners purified.

Row | Binder | binding result
5 | B1 | no binding (tested: 1 µg/mL sdAb)
6 | B2 | no binding (tested: 1 µg/mL sdAb)

What follows are binders tested against T3, PfCSPFL, recombinant full-length P. falciparum NF54 circumsporozoite protein devoid of signal peptide and GPI … (P. falciparum NF54, UniProt P19597) in the same assay as above. Conditions: both partners purified.
T3 construct: Circumsporozoite protein (CSP) of P. falciparum NF54, UniProt P19597, residues F20-S384, devoid of signal peptide and GPI anchor; Gene synthesized, codon-optimized, in pET-21b(+); also called full-length PfCSP
T3 sequence (P19597 20-384): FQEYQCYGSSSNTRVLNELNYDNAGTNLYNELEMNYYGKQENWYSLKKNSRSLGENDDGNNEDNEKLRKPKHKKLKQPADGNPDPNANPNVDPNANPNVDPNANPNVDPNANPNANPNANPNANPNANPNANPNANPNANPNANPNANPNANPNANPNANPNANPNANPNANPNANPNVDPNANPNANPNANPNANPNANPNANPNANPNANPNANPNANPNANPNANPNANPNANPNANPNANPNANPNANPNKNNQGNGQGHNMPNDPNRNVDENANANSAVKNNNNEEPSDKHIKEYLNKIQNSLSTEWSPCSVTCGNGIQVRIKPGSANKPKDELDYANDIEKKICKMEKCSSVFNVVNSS

Row | Binder | binding result
7 | B1 | binds
8 | B2 | binds

What follows are binders tested against T1, PfCSPC, C-terminal αTSR domain of P. … (assay: not given). Conditions: not given.

Row | Binder | binding result
9 | B3 | binds
10 | B4 | binds
11 | B5 | binds
12 | B6 | binds
13 | B7 | binds
14 | B8 | binds
15 | B9 | binds
16 | B10 | binds
17 | B11 | binds
18 | B12 | binds

These binders were tested against T3, PfCSPFL, recombinant full-length P. … (assay: not given). Conditions: not given.

Row | Binder | binding result
19 | B3 | binds
20 | B4 | binds
21 | B5 | binds
22 | B6 | binds
23 | B7 | binds
24 | B8 | binds
25 | B9 | binds
26 | B10 | binds
27 | B11 | binds
28 | B12 | binds

— publication PMC12150756 (Infection and Immunity, 2025)
